From paper PMC5897841, “Development of a multipurpose scaffold for the display of peptide loops” (Protein Engineering, Design and Selection, 2017)

Experiments:
[1] = target: Alexa Fluor 488-labeled cRAD-TPX2_((7–43)) display protein (Pyrococcus furiosus | human) (UniProt O74036); experiment: fluorescence polarisation; fluorescence anisotropy, direct titration of kinase (CK2α 2 nM-2 μM; Aurora A D274N 2 nM-1.5 μM) into labelled peptide or display protein; 10 mM HEPES pH 7.4, 500 mM NaCl, 1 mM DTT, 0.05% P20; room temperature; 1:1 model
[2] = target: cRAD-TPX2_((7–43)) display protein (Pyrococcus furiosus | human) (UniProt O74036); experiment: SPR; Biacore T100, CM5, peptides or cRAD display proteins immobilised through their cysteine (240-400 RU), kinase as analyte 2.5 nM-2.5 μM, 25°C, 10 mM HEPES pH 7.4, 500 mM NaCl, 0.05% P20; 1:1 steady-state affinity model; CK2α data analysed at 200 s post-injection

Kd [1]: 98 nM
Kd [2]: 168 nM
B1: Aurora A_(D274N) kinase domain (domain or fragment)
chain: ESKKRQWALEDFEIGRPLGKGKFGNVYLAREKQSKFILALKVLFKAQLEKAGVEHQLRREVEIQSHLRHPNILRLYGYFHDATRVYLILEYAPLGTVYRELQKLSKFDEQRTATYITELANALSYCHSKRVIHRDIKPENLLLGSAGELKIANFGWSVHAPSSRRTTLCGTLDYLPPEMIEGRMHDEKVDLWSLGVLCYEFLVGKPPFEANTYQETYKRISRVEFTFPDFVTEGARDLISRLLKHNPSQRPMLREVLEHPWITANSSKPSNCQNKESASKQS
